# Laboratory results published in US20220364094, “CD44 APTAMER” (The Chiness University Of Hong Kong, published 2022).
# B1: CD44-Apt1 (biotin) (ssDNA)
# DNA: ATCCAGAGTGACGCAGCATCGCAACGATTAGTATGCACCCACCGTATAGGTTGGTCTCTGGACACGGTGGCTTAGT
# Molecular target: CD44 hyaluronic acid binding domain (HABD) (UniProt P16070 P16070:21-178)
# Assay: ELONA; hardly associated with HABD; epitope expected in region encoded by exons 15-16
# Conditions: tags: His-tag, commercial; captured via His-tag antibody; label: biotin (loop of second hairpin, 44G-48A region); two hairpins and one stem (predicted)
# Method: His-tag recombinant CD44 HABD protein was immobilized on ELISA plate using His-tag antibody. The captured CD44 proteins were incubated with various concentrations of biotin-labeled CD44-Apt1 (5 nM-10 μM). Bound Apt1 then were detected by peroxidase-conjugated streptavidin and TMB substrate. […] constant, KD was calculated based on the absorbance values using the one-site binding model for non-linear regression in GraphPad.
# The major epitope in CD44 protein that is recognized by the CD44-Apt1 was next determined. CD44 protein consists of an extracellular domain, a transmembrane helical domain, and an intracellular signaling transmission domain (FIG. 1H). The extracellular domain contains a hyaluronic acid binding domain (HABD) at its distal N-terminus and a glycosylation-site enriched variable region, the length of which are vary in different splice variants. Titration sandwich enzyme-linked immunosorbent assay (ELISA) was employed to map the epitope for CD44-Apt1. Antibody targeting the C-terminus of CD44 proteins that is the intracellular signaling domain was immobilized on a polystyrene support. Sites without antibody were blocked using bovine serum albumin. […] The amount of biotin-CD44-Apt1 bound to the captured proteins were evaluated using streptavidin conjugated horseradish peroxidase (HRP) and TMB substrate.
# Chain of CD44 hyaluronic acid binding domain (HABD) (P16070 21-178, one chain of several): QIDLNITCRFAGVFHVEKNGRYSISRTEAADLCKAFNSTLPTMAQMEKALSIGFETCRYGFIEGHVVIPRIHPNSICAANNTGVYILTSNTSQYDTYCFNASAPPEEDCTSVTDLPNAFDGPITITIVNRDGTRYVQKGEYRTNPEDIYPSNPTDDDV
binder,measurement,value
B1,Kd,2.36 µM
